Assay results published in the nanobody polyreactivity screen of Harvey et al. (2022).

Experiment: yeast display, Sf9 membrane polyspecificity reagent, FACS + sequencing; frameworks hold sequencing errors
Outline: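 A synthetic nanobody library was expressed on Saccharomyces cerevisiae BJ5465 by galactose induction for 36–48 hours. The library was stained for 1 hour at 4 °C with 10% biotinylated, detergent-solubilized Sf9 membrane reagent and enriched with streptavidin microbeads before FACS. Low and high (top ~1%) gates were set on anti-HA fluorescence for expression and streptavidin fluorescence for reagent binding, and each polyreactivity label reflects the gate of origin.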

| Sequence | polyreactivity (PSR sort gate) |
| --- | --- |
| QVQLVESGGGLVQAGGSLRLSCAASGSIFRTYAMGWYRQSPGKERELVAAITSDGSTYYADSVKGRFTISRDNAKNTVYLKMNRLKPEDTAVYYFAAASQEYDYHYYYWGQGTQVTVSS | low polyreactivity |
| QVQLVESGGGLVQAGGSLRLSCAASGSIFRVNAMGWYRQAPGKERELVAAISRRGGRRYYADSVKGRFTISRDNAKNTVYLQMNSLKPEDTAVYYCAAGVSVSASPYNGFDYWGQGTQVTVSS | high polyreactivity |
| QVQLVESGGGLVQAGGSLRLSCAASGSIFRVYAMGWYRQAPGKERELVASISRRGGSTYYADSVKGRFTISRDNAKNTVYLQMNSLKPEDTAVYYCAAEFVIGGHGYDYWGQGTQVTVSS | high polyreactivity |
| QVQLVESGGGLVQAGGSLRLSCAASGSIFRVYAMGWYRQAPGKERELVAVGSTYYADSVKGRFTISRDNAKNTVYLQMNSLKPEDTAVYYCARRGKSRYSYHYWGQGTQVTVSS | high polyreactivity |
| QVQLVESGGGLVQAGGSLRLSCAASGSIFRVYMGWYRQAPGKERALVATIRWSSGSTYYADSVKGRFTISRDNAKNTVYLQMNSLKPEDTAVYYCAVKGPYYDDYDYWGQGTQGTVSS | low polyreactivity |
| QVQLVESGGGLVQAGGSLRLSCAASGSIFRWYAMGWYRQAPGKERELVAAISKSGGTTYYADSVKGRFTISRDNAKNTVYLQMNSLKPEDTAVYYCAARRYPYGGYGYRYDYWGQGTQVTVSS | high polyreactivity |
| QVQLVESGGGLVQAGGSLRLSCAASGSIFRWYAMGWYRQAPGKERELVAAITWSASRTYYADSVKGRFTISRDTAKNTVYLQMNSLKPEDTAVYYCAADHDGPYAGYDSWRQGTQVTVSS | low polyreactivity |
| QVQLVESGGGLVQAGGSLRLSCAASGSIFRYNAMGWYIQAPGKERELVAAISWNGARTYYADSVKGRFTISRDNAKNTVYLQMNSLKPEDTAVYYCNAGTFTRRRGLDYWGQGTQVTVSS | low polyreactivity |
| QVQLVESGGGLVQAGGSLRLSCAASGSIFRYNAMGWYRPAPGTERELVAAITSGDSTYYADSVKGRFTISRDNAKNTVYLHMNSLKPEDTAVYYCARRSYATYSFRFDYWGQGTQVTVSS | low polyreactivity |
| QVQLVESGGGLVQAGGSLRLSCAASGSIFRYNAMGWYRQAPGTEREVVAGITSGGDTNYADSVKGRFTISRDNAKNTVYLQMNSLKPEDTAVYYCAKRWYGGRRYDYWGQGTQVTVSS | low polyreactivity |
| QVQLVESGGGLVQAGGSLRLSCAASGSIFRYNTKGWYRQATGKERELDAAINWSGGNTYYADSVKGRFTISRDNAKNTVYLQMNSLKPEDTAVYYCAARWPSYVSYRYYTKYDYWGQGTQVTVSS | high polyreactivity |
| QVQLVESGGGLVQAGGSLRLSCAASGSIFRYNTMGWYRQAPGKVRELVATITRRGGSTYYADSVKGRFTISRDNAKNTVYLQMNSVKPEDTAVYYCIADNFGGPYNYWGQGTQVTVSS | low polyreactivity |
| QVQLVESGGGLVQAGGSLRLSCAASGSIFRYYAKGWSRQAPGKERELVAAISRSGGSTYYADSVKGRFTISRDNAKNTVYLQMKSLKPEDTAVYYCAAEYRVRAQGYVYWGQGTQVTVSS | high polyreactivity |
| QVQLVESGGGLVQAGGSLRLSCAASGSIFRYYAMGWYIQAPGKEMELVAAITSSGGSTYYADSVKGRFTISRDNAKNTVYLQMNSLKPEDTAVYDCNARHVRYSRRENDYWGQGTQGTVSS | high polyreactivity |
| QVQLVESGGGLVQAGGSLRLSCAASGSIFRYYAMGWYRPAPGKERELVAAISSRGGRTYYADSVKGRFTISRDNAKNTVYLQMNSLIPEDTAVYYCAARRYRYTTPFRYGYDYWGQGTQVTVSS | high polyreactivity |
| QVQLVESGGGLVQAGGSLRLSCAASGSIFRYYAMGWYRPAPGKERELVARISATGASTYYADSVKGRFTISRDNAKNTVYLQMNSLKPEDTAVYYCAAGGRSRWGRYSPYDYWGQGTQVTVSS | high polyreactivity |
| QVQLVESGGGLVQAGGSLRLSCAASGSIFRYYAMGWYRQAHGKERELVAVITSSGTSTYYADSVKGRFTISRDNAKNTVYLQMNSRKPEDTAVDYCAVYPIIYGRMDSWGQGTQVTVSS | low polyreactivity |
| QVQLVESGGGLVQAGGSLRLSCAASGSIFRYYAMGWYRQAPGKEREFDASITYRGGRTYYADSVKGRFTISRDNAKNTVYLQMNSLKPEDTAVYYCAARTRAGAWTSKYHDYWGQGTQVTVSS | high polyreactivity |
| QVQLVESGGGLVQAGGSLRLSCAASGSIFRYYAMGWYRQAPGKERELVAAISSNGGSTYYADSVKGRFTISRDNAKNTVYLQMNSLKPEDTAVYYCAALFRRAPGYYWGQGTQVTVSS | high polyreactivity |
| QVQLVESGGGLVQAGGSLRLSCAASGSIFRYYAMGWYRQAPGKERELVASISSGAGSTYYADSVKGRFTISRDNAKNTVYLQMNSLKPEDTAVYYCAARPGYSAFYYWGQGTQVTVSS | high polyreactivity |
| QVQLVESGGGLVQAGGSLRLSCAASGSIFRYYAMGWYRQAPGKERELVASITRRGGSTYYADSVKGRFTISRDNAKNTVYLQMTSLKPEDTAVYYCAAHKTYVRDYYWGQGTQVTVSS | high polyreactivity |
| QVQLVESGGGLVQAGGSLRLSCAASGSIFRYYAMGWYRQAPWKERELVADISSGGSTYYADSVKGRFTISRDNAKNTVNLQMISQKPEDTAVYYCNDDYYAYPWTNDYWGQGTQVTVTS | high polyreactivity |

| Sequence | polyreactivity (PSR sort gate) |
| --- | --- |
| QVQLVESGGGLVQAGGSLRLSCAASGSIFRYYDMGWYRQAPGKERELVAAISDSTGTTYYADSVKGRFSISRDNAKNTVYLQMNSLKPEDTSVDYCTAGYDPRYDYWGQGTQVTVSS | high polyreactivity |
| QVQLVESGGGLVQAGGSLRLSCAASGSIFSANAMGWYRQAPGKERELVAAINSGGGTYYADSVKGRFTISRDNAKNTVFLQMNSLKPEDTAVYYCATDAVYIKGKYYTHEYWGQGTQVTVSS | high polyreactivity |
| QVQLVESGGGLVQAGGSLRLSCAASGSIFSANAMGWYRQAPGKERELVAAISDGGAATYYADSVKGRFTISRDNAKHTVYLQMNSLKPEDTAVYYCIADDAFWTVVDGNWRYEYDYWGQGTQVTVSS | low polyreactivity |
| QVQLVESGGGLVQAGGSLRLSCAASGSIFSANARGWYRQAPGKERELVASITGDGSTNYADSVKGRFTISRDNAKNPGYLQMNSLKPEDTAVYYCAADIGSWYDYWGQGTQVTGSS | low polyreactivity |
| QVQLVESGGGLVQAGGSLRLSCAASGSIFSAYAMGWSRQAPGKERELVASITTDGGITYYADSVKGRFTISRDNAKNTVYLQMNSLKPEDTAVYYCAVLQYYYPYYYWGQGTQVTVSS | low polyreactivity |
| QVQLVESGGGLVQAGGSLRLSCAASGSIFSAYAMGWYRQAPGKEREFVASITWSGGSTYYADSVKGRFTISRDNAKNTVYLQMNSLKPEDTAVYYCAAVYVTWYNNYEYWGQGTQVTVSS | high polyreactivity |
| QVQLVESGGGLVQAGGSLRLSCAASGSIFSAYAMGWYRQAPGKERELVAAISSRGGSTYYADSVKGRFTISRDNAKNTVYLQMNSLKPEDTAVDYCAARVRHSAYDYWGQGTQVTVSS | high polyreactivity |
| QVQLVESGGGLVQAGGSLRLSCAASGSIFSAYAMGWYRQAPGKERELVAAITKSSVTYYADSVKGRFTISRDNAKNTVYLQMNSLKPEDTAVYYCAAYSPRPSDLYSPIAYYYWGQGTQVTVSS | low polyreactivity |
| QVQLVESGGGLVQAGGSLRLSCAASGSIFSFNAMGWYRQAPGKERELVAAISWRGASTYYADSVKGRFTISRDNAKNTVYLQMNSLKPEDTAVYYCAAESTFILQYSYIYYDGHYDYWGQGTQVTVSS | low polyreactivity |
| QVQLVESGGGLVQAGGSLRLSCAASGSIFSFYAMVWYRQAPGKERELVADISLTTDSTYADSVKGRFTISRDNAKNTVYLQMNSLKPEDTAVYYCAADFFGTITWYDYWGQGTQVTVSS | low polyreactivity |
| QVQLVESGGGLVQAGGSLRLSCAASGSIFSFYAVGWYRQAPGKERELVAALSSGGSTYYADSVKGRFTISGDNAKNTVYLQMNSLIPEDTAVYYCAADPYRYNFRAYGWYREGYYWGQGTQVTVSS | low polyreactivity |
| QVQLVESGGGLVQAGGSLRLSCAASGSIFSGNAMGWYRQAPGKERELVAAISRSGTSTYYADSVKGRFTISRDNAKNTVYFQMNSLKPEDTAVYYCNARSYYTLRSDFYYWGQGTQVTVSS | high polyreactivity |
| QVQLVESGGGLVQAGGSLRLSCAASGSIFSGNAMGWYRQAPGKERELVAAISSNGGRTYYADSVKGRFTISRDNAKNTVYLQMNSLKPEDTAVYYCAADSGKRRYGYYYWGQGTQVTVSS | high polyreactivity |
| QVQLVESGGGLVQAGGSLRLSCAASGSIFSGNAMGWYRQAPGKERELVASINRSGGSTYYADSVKGRFTISRDNAKNTVYLQMNSLKTEDTAVYYCAARRVWLAGYDSWGQGTQVTVSS | low polyreactivity |
| QVQLVESGGGLVQAGGSLRLSCAASGSIFSGNPMGWYRQAPGKERELVAAIDWSGDSTYYADSVKGRFTISRDNAKNTVYLQMNSLKPEDTAVYYCNTVSFSWGYSAYDYWGQGTQVTVSS | low polyreactivity |
| QVQLVESGGGLVQAGGSLRLSCAASGSIFSGNTMGWYRQAPGKERELVAAISKSGGSTYYADSVKGRFTISRDNAKNTVYLQINSLKPEDTAVYYCAVRIRSRVANPGYRWGFNYWGQGTQVTVSS | high polyreactivity |
| QVQLVESGGGLVQAGGSLRLSCAASGSIFSGNVMGWYRQAPGKERELVAAISGRGGSTYYADSVKGRFTISRDNAKNTVYLQMNSLKPEDTAVYYCAAVYLKTYYWGQGTQVTVSS | high polyreactivity |
| QVQLVESGGGLVQAGGSLRLSCAASGSIFSGYAMGWYRQAPGKESDLVAAISGSGGSTFYADSVKGRFTISRDYAKNTVYLQMNSLKPEDTAVYFCAARRIAPYGRYDYWGQGTQVTVSS | low polyreactivity |
| QVQLVESGGGLVQAGGSLRLSCAASGSIFSGYTMGWYRQAPGKERELVAAISSDGSTTYADSVKGRFTISRDNAKNTVYLQMNSLNPEDTADYYCAAYPYWEGSYGGYDYWGQGTEVTVSS | low polyreactivity |
| QVQLVESGGGLVQAGGSLRLSCAASGSIFSINAMGWYRQAPGKERELVAAISASGGSTYYADSVKGRFTISRDNAKNTVYLQMNSLKPEDTAVYYCAAEGSPTGYDYWGQGTQVTVSS | low polyreactivity |
| QVQLVESGGGLVQAGGSLRLSCAASGSIFSINTMGWYRQAPGKERELVATITWSVGSTNYADSVKGRFTISRDNAKNTVYLQMNSLKPEDTAVYYCNADSSRWPYRLYRFYYWGQGTQVTVSS | low polyreactivity |
